For three substances, binding signal and Kd results are on record in publication PMC12823420.

Data set [1] deals with UAP56;SARNP (Homo sapiens;Homo sapiens) (UniProt Q13838). Put plainly: pull-down. Conditions: 1 mM AMP-PNP; UAP56 bound with SARNP set to 100%; GCI: 25 mM HEPES pH 7.9, 50 mM KCl, 1 mM MgCl2, 1 mM TCEP, 1 mM ATP, 25 C; AdML pull-down: 20 mM HEPES pH 7.9, 100 mM KCl, 2 mM MgCl2, 5% glycerol, 0.1% ….
Data set [2] deals with the THO complex (recombinant, surface-immobilized; tetramer, dimer or monomer, not told apart in the sentence). As to the kind of experiment: grating-coupled interferometry (GCI); V5-tagged THO complex captured on an anti-V5 chip; UAP56 injected in a 1:2 series from 5 μM, alone or with only 1 mM ATP or only 200 μM 15 U RNA; 25 mM HEPES pH 7.9, 50 mM KCl, 1 mM MgCl2, 1 mM TCEP, 25 °C; one-to-one model.

Data set [3] has as its target ALYREF N-UBM peptide, biotinylated (human). Put plainly: grating-coupled interferometry (GCI); biotinylated UBM or UCM peptides captured on a streptavidin chip; UAP56 injected; 25 mM HEPES pH 7.9, 50 mM KCl, 1 mM MgCl2, 1 mM TCEP, 25 °C; one-to-one model; UCM peptides also with AMP-PNP or AMP-PNP and 15 U RNA.
Data set [4] concerns the target UAP56-UCM-1-N-UBM fusion (Homo sapiens) (UniProt Q13838+P82979+Q86V81). Put plainly: GCI. Particulars: 1 mM ATP, RNA immobilized, GCI: 25 mM HEPES pH 7.9, 50 mM KCl, 1 mM MgCl2, 1 mM TCEP, 25 C, AdML pull-down: 20 mM HEPES pH 7.9, 100 mM KCl, 2 mM MgCl2, 5% glycerol, 0.1% ….

The substance AdML RNA with MS2 loops, 450 nt yielded a binding signal in data set [1] of 100%.
Take “UAP56 (from UniProt Q13838 1-428) (enzyme)”: the Kd in data set [2] is 240 to 390 nM; in data set [3] it was 28000 nM.
Substance UUUUUUUUUUUUUUU [15U RNA] displayed an equilibrium dissociation constant (Kd) in data set [4] of 120 nM.
